Results reported in patent US20150299268A1.

Target: panel of 118 tier 2,3 viruses
Test: cell-based or functional assay

B1: N60-B1.1 (antibody, V domains shown)
VH: QLQLQESGPGLVKPSGTLSLTCSVSGGSMNGRNIYWAWIRQTPGKGLEWIGSVDVSDEDAGRTFYKWPIKSRASISADTSKNQFSLKLSSVTVADTGVYYCARETLYYVGNGYYYPLDVFYYNYYMDVWGKGTTVSVSSASTKG
VL: not shown
Q: Which % of neutralized viruses does the source give for B1 here?
A: 40.2%

Q: And the Median IC50 (ug/ml), neutralization?
A: 0.37 µg/mL

Q: What about the average IC50, neutralization (TZM-bl assay) of the same binder?
A: 0.44 µg/mL
